Positions count from the first letter of the chain named.

Holding throughout (assay): SPR, mAb captured, C2 mutant analyte;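 also: Anti-C2 mAbs captured on goat anti-human IgG Biacore CM5 chips, alanine or serine C2 surface mutants flowed over at 37 °C, double-referenced sensorgrams fitted to a 1:1 binding model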
(In general: In SPR one partner is held on a chip, and binding of the other changes the refractive index at the surface.)

Experiment [1] addresses T1, human C2 K244A (human, UniProt P06681 21-752).
T1 sequence: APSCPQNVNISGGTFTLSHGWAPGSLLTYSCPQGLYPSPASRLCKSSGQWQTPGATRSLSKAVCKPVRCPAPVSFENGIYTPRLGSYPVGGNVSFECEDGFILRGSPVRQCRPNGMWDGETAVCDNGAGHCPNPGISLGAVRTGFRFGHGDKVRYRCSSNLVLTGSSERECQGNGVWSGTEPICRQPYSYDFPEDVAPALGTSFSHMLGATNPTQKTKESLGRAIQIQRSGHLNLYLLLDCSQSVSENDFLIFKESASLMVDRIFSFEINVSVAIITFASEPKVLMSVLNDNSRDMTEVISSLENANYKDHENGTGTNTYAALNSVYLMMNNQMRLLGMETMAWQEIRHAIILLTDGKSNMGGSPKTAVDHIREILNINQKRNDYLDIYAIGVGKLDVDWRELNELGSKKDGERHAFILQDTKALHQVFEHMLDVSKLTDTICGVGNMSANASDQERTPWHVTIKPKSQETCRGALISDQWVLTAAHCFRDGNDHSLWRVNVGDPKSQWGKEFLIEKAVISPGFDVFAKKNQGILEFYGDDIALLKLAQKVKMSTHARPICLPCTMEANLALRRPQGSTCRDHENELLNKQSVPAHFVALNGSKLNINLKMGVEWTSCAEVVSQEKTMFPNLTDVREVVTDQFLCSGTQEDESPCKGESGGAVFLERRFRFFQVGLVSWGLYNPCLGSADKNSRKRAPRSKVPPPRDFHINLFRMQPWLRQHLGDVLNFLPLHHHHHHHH

The target in experiment [2] is T2, human C2 G432A (human, UniProt P06681 21-752).
T2 sequence: T1 sequence with A224K, G412A

The target in experiment [3] is T3, human C2 V455A (human, UniProt P06681 21-752).
T3 sequence: T1 sequence with A224K, V435A

Experiment [4] addresses T4, human C2 S469A (human, UniProt P06681 21-752).
T4 sequence: T1 sequence with A224K, S449A

B1: RF16-214 (antibody, V domains shown)
VH: EVQLLESGGGLVQPGGSLRLSCAASGFTFSWYQMMWVRQAPGKGLEWVSRIYPSGGGTAYADSVKGRFTISRDNSKNTLYLQMNSLRAEDTAVYYCARDAGYGDNWGQGTLVTVSS
VL: QSALTQPPSVSVSPGQTASITCSGDKLGEKYASWYQQKAGQSPVMVIYQDRKRPSGIPERFSGSNSGNTATLTISGTQAMDEADYYCQAWDTRAVVFGGGTKLTVLG
In general, Kd refers to the concentration at which binding is half-saturated. For B1, the equilibrium dissociation constant (Kd) stood at 97.1 nM in experiment [1], 26 nM in experiment [2], 9.8 nM in experiment [3] and 106 nM in experiment [4].
